Biological target: T1, CD3ε homodimer protein (human, UniProt P07766 23-126, limits assumed, sulfo-tag or biotin label in the ECL assays; amine-coupled to the chip in SPR)
T1 construct: also called human CD3ε homodimer protein; CD3 (CD3ε)
Test: SPR Biacore T200; CD3ε homodimer on CM4 chip;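 also: Single-residue variant antibodies injected as analyte over CD3ε homodimer immobilized by amine coupling, run at 25 °C in HBS-EP+ buffer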

T1 sequence (P07766 23-126 limits assumed): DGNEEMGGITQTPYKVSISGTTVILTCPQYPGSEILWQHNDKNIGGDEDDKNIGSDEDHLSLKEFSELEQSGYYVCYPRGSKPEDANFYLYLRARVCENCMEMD

B1: CE115HA000 A52aS one-arm antibody (antibody, human IgG1, kappa, L234A L235A, N297A, name in Kabat numbering)
heavy: QVQLVESGGGVVQPGRSLRLSCAASGFTFSNAWMHWVRQAPGKGLEWVAQIKSKSNNYATYYAESVKGRFTISRDDSKNSLYLQMNSLKTEDTAVYYCRYVHYGAYYGVDAWGQGTTVTVSSASTKGPSVFPLAPSSKSTSGGTAALGCLVKDYFPEPVTVSWNSGALTSGVHTFPAVLQSSGLYSLSSVVTVPSSSLGTQTYICNVNHKPSNTKVDKKVEPKSCDKTHTCPPCPAPEAAGGPSVFLFPPKPKDTLMISRTPEVTCVVVDVSHEDPEVKFNWYVDGVEVHNAKTKPREEQYASTYRVVSVLTVLHQDWLNGKEYKCKVSNKALPAPIEKTISKAKGQPREPQVYTLPPSRCELTKNQVSLSCAVKGFYPSDIAVEWESNGQPENNYKTTPPVLDSDGSFFLVSKLTVDKSRWQQGNVFSCSVMHEALHNHYTQKSLSLSPDYKDDDDK
chain: EPKSSDKTHTCPPCPAPELLGGPSVFLFPPKPKDTLMISRTPEVTCVVVDVSHEDPEVKFNWYVDGVEVHNAKTKPREEQYNSTYRVVSVLTVLHQDWLNGKEYKCKVSNKALPAPIEKTISKAKGQPREPQVCTLPPSRDELTKNQVSLWCLVKGFYPSDIAVEWESNGQPENNYKTTPPVLDSDGSFFLYSKLTVDKSRWQQGNVFSCSVMHEALHNRYTQKSLSLSP
light: DIVMTQSPLSLPVTPGEPASISCRSSQSLVHSNRNTYLHWYQQKPGQAPRLLIYKVSNRFSGVPDRFSGSGSGTDFTLKISRVEAEDVGVYYCGQGTQVPYTFGQGTKLEIKRTVAAPSVFIFPPSDEQLKSGTASVVCLLNNFYPREAKVQWKVDNALQSGNSQESVTEQDSKDSTYSLSSTLTLSKADYEKHKVYACEVTHQGLSSPVTKSFNRGEC
- ratio of amounts bound Z=Y/X (altered form / CE115HA000): 1.05

B2: CE115HA000 A52aV one-arm antibody (antibody, human IgG1, kappa, L234A L235A, N297A, name in Kabat numbering)
heavy: QVQLVESGGGVVQPGRSLRLSCAASGFTFSNAWMHWVRQAPGKGLEWVAQIKVKSNNYATYYAESVKGRFTISRDDSKNSLYLQMNSLKTEDTAVYYCRYVHYGAYYGVDAWGQGTTVTVSSASTKGPSVFPLAPSSKSTSGGTAALGCLVKDYFPEPVTVSWNSGALTSGVHTFPAVLQSSGLYSLSSVVTVPSSSLGTQTYICNVNHKPSNTKVDKKVEPKSCDKTHTCPPCPAPEAAGGPSVFLFPPKPKDTLMISRTPEVTCVVVDVSHEDPEVKFNWYVDGVEVHNAKTKPREEQYASTYRVVSVLTVLHQDWLNGKEYKCKVSNKALPAPIEKTISKAKGQPREPQVYTLPPSRCELTKNQVSLSCAVKGFYPSDIAVEWESNGQPENNYKTTPPVLDSDGSFFLVSKLTVDKSRWQQGNVFSCSVMHEALHNHYTQKSLSLSPDYKDDDDK
chain: EPKSSDKTHTCPPCPAPELLGGPSVFLFPPKPKDTLMISRTPEVTCVVVDVSHEDPEVKFNWYVDGVEVHNAKTKPREEQYNSTYRVVSVLTVLHQDWLNGKEYKCKVSNKALPAPIEKTISKAKGQPREPQVCTLPPSRDELTKNQVSLWCLVKGFYPSDIAVEWESNGQPENNYKTTPPVLDSDGSFFLYSKLTVDKSRWQQGNVFSCSVMHEALHNRYTQKSLSLSP
light: DIVMTQSPLSLPVTPGEPASISCRSSQSLVHSNRNTYLHWYQQKPGQAPRLLIYKVSNRFSGVPDRFSGSGSGTDFTLKISRVEAEDVGVYYCGQGTQVPYTFGQGTKLEIKRTVAAPSVFIFPPSDEQLKSGTASVVCLLNNFYPREAKVQWKVDNALQSGNSQESVTEQDSKDSTYSLSSTLTLSKADYEKHKVYACEVTHQGLSSPVTKSFNRGEC
- ratio of amounts bound Z=Y/X (altered form / CE115HA000): 0.52
